Measured values taken from US20200199241A1 (Chugai, published 2020).
Substitutions are numbered along the chain they refer to.

B1: IgG1-F176 (antibody)
heavy: QVQLQESGPGLVKPSETLSLTCAVSGHSISHDHAWSWVRQPPGEGLEWIGFISYSGITNYNPSLQGRVTISRDNSKNTLYLQMNSLRAEDTAVYYCARSLARTTAMDYWGEGTLVTVSSASTKGPSVFPLAPSSKSTSGGTAALGCLVKDYFPEPVTVSWNSGALTSGVHTFPAVLQSSGLYSLSSVVTVPSSSLGTQTYICNVNHKPSNTKVDKKVEPKSCDKTHTCPPCPAPELLGGPKVFLFPPKPKDTLWISRTPEVTCVVVDVSHEDPEVKFNWYVDGVEVHNAKTKPREEQYNSTYRVVSVLTVLHQDWLNGKEYKCKVSNKALPAPIEKTISKAKGQPREPQVYTLPPSRDELTKNQVSLTCLVKGFYPSDIAVEWESNGQPENNYKTTPPVLDSDGSFFLYSKLTVDKSRWQQGNVFSCSVMHEALHYHYTQKSLSLSP
light: not shown
notes: EU numbering; copies: 2 + 2
B2: IgG1-F219 (antibody)
heavy: B1 heavy with K241S, W254Y, T291H
light: not shown
notes: EU numbering; copies: 2 + 2
B3: IgG1-F198 (antibody)
heavy: B1 heavy with K241S, W254M, P259V, T309Q, M430L
light: not shown
notes: EU numbering; copies: 2 + 2
B4: IgG1-F201 (antibody)
heavy: B1 heavy with K241S, W254Y, T309D
light: not shown
notes: EU numbering; copies: 2 + 2
B5: IgG1-F191 (antibody)
heavy: B1 heavy with K241S, W254M, P259L, T309A, M430L
light: not shown
notes: EU numbering; copies: 2 + 2
B6: IgG1-F196 (antibody)
heavy: B1 heavy with K241S, W254M, P259A, T309Q, M430L
light: not shown
notes: EU numbering; copies: 2 + 2
B7: IgG1-F212 (antibody)
heavy: B1 heavy with K241S, W254Y, T309R
light: not shown
notes: EU numbering; copies: 2 + 2
B8: IgG1-F214 (antibody)
heavy: B1 heavy with K241S, W254Y, T309V
light: not shown
notes: EU numbering; copies: 2 + 2
B9: IgG1-F192 (antibody)
heavy: B1 heavy with K241S, W254M, P259A, T309A, M430L
light: not shown
notes: EU numbering; copies: 2 + 2
B10: IgG1-F182 (antibody)
heavy: B1 heavy with K241S, W254M, P259A, M430L, Y436W
light: not shown
notes: EU numbering; copies: 2 + 2
B11: IgG1-F218 (antibody)
heavy: B1 heavy with K241S, W254Y, G387H
light: not shown
notes: EU numbering; copies: 2 + 2
B12: IgG1-F209 (antibody)
heavy: B1 heavy with K241S, W254Y, T309M
light: not shown
notes: EU numbering; copies: 2 + 2
B13: IgG1-F210 (antibody)
heavy: B1 heavy with K241S, W254Y, T309N
light: not shown
notes: EU numbering; copies: 2 + 2
B14: IgG1-F194 (antibody)
heavy: B1 heavy with K241S, W254M, P259V, T309A, M430L
light: not shown
notes: EU numbering; copies: 2 + 2
B15: IgG1-F193 (antibody)
heavy: B1 heavy with K241S, W254M, P259T, T309A, M430L
light: not shown
notes: EU numbering; copies: 2 + 2
B16: IgG1-F178 (antibody)
heavy: B1 heavy with K241S, D272F
light: not shown
notes: EU numbering; copies: 2 + 2
B17: IgG1-F183 (antibody)
heavy: B1 heavy with K241S, W254M, P259T, M430L, Y436W
light: not shown
notes: EU numbering; copies: 2 + 2
B18: IgG1-F177 (antibody)
heavy: B1 heavy with K241S, S300G
light: not shown
notes: EU numbering; copies: 2 + 2
B19: IgG1-F179 (antibody)
heavy: B1 heavy with K241S, N327G
light: not shown
notes: EU numbering; copies: 2 + 2
B20: IgG1-F184 (antibody)
heavy: B1 heavy with K241S, W254M, P259V, M430L, Y436W
light: not shown
notes: EU numbering; copies: 2 + 2
B21: IgG1-F213 (antibody)
heavy: B1 heavy with K241S, W254Y, T309S
light: not shown
notes: EU numbering; copies: 2 + 2
B22: IgG1-F195 (antibody)
heavy: B1 heavy with K241S, W254M, P259L, T309Q, M430L
light: not shown
notes: EU numbering; copies: 2 + 2
B23: IgG1-F228 (antibody)
heavy: B1 heavy with K241S, W254Y, L311E
light: not shown
notes: EU numbering; copies: 2 + 2
B24: IgG1-F190 (antibody)
heavy: B1 heavy with K241S, W254Y, T309Q
light: not shown
notes: EU numbering; copies: 2 + 2
B25: IgG1-F223 (antibody)
heavy: B1 heavy with K241S, W254Y, K362H
light: not shown
notes: EU numbering; copies: 2 + 2
B26: IgG1-F208 (antibody)
heavy: B1 heavy with K241S, W254Y, T309L
light: not shown
notes: EU numbering; copies: 2 + 2
B27: IgG1-F229 (antibody)
heavy: B1 heavy with K241S, W254Y, R257E
light: not shown
notes: EU numbering; copies: 2 + 2
B28: IgG1-F204 (antibody)
heavy: B1 heavy with K241S, W254Y, T309G
light: not shown
notes: EU numbering; copies: 2 + 2
B29: IgG1-F203 (antibody)
heavy: B1 heavy with K241S, W254Y, T309F
light: not shown
notes: EU numbering; copies: 2 + 2
B30: IgG1-F216 (antibody)
heavy: B1 heavy with K241S, W254Y, T309Y
light: not shown
notes: EU numbering; copies: 2 + 2
B31: IgG1-F206 (antibody)
heavy: B1 heavy with K241S, W254Y, T309I
light: not shown
notes: EU numbering; copies: 2 + 2
B32: IgG1-F221 (antibody)
heavy: B1 heavy with K241S, W254Y, D314H
light: not shown
notes: EU numbering; copies: 2 + 2
B33: IgG1-F220 (antibody)
heavy: B1 heavy with K241S, W254Y, Q313H
light: not shown
notes: EU numbering; copies: 2 + 2
B34: IgG1-F217 (antibody)
heavy: B1 heavy with K241S, W254Y, K336L
light: not shown
notes: EU numbering; copies: 2 + 2
B35: IgG1-F227 (antibody)
heavy: B1 heavy with K241S, W254Y, N288E
light: not shown
notes: EU numbering; copies: 2 + 2
B36: IgG1-F215 (antibody)
heavy: B1 heavy with K241S, W254Y, T309W
light: not shown
notes: EU numbering; copies: 2 + 2
B37: IgG1-F226 (antibody)
heavy: B1 heavy with K241S, W254Y, L316K
light: not shown
notes: EU numbering; copies: 2 + 2
B38: IgG1-F222 (antibody)
heavy: B1 heavy with K241S, W254Y, N317H
light: not shown
notes: EU numbering; copies: 2 + 2
B39: IgG1-F211 (antibody)
heavy: B1 heavy with K241S, W254Y, T309P
light: not shown
notes: EU numbering; copies: 2 + 2
B40: IgG1-F189 (antibody)
heavy: B1 heavy with K241S, W254Y, T309A
light: not shown
notes: EU numbering; copies: 2 + 2
B41: IgG1-F225 (antibody)
heavy: B1 heavy with K241S, W254Y, L316R
light: not shown
notes: EU numbering; copies: 2 + 2
B42: IgG1-F205 (antibody)
heavy: B1 heavy with K241S, W254Y, T309H
light: not shown
notes: EU numbering; copies: 2 + 2

target: T1, human FcRn (soluble human FcRn complexed with β2-microglobulin) (human, UniProt P61769 21-119, limits assumed); test: SPR, pH 7.0;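 also: antibodies captured on a Protein L sensor chip with human FcRn injected as analyte, KD calculated from fitted association and dissociation rate constants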
T1 construct: also called hFcRn

Kd [nM] | Binder
290 | B1
250 | B2
48 | B3
210 | B4
160 | B5
35 | B6
680 | B7
170 | B8
110 | B9
66 | B10
260 | B11
130 | B12
290 | B13
120 | B14
85 | B15
270 | B16
220 | B17
280 | B18
310 | B19
270 | B20
230 | B21

Kd [nM] | Binder
56 | B22
230 | B23
110 | B24
270 | B25
390 | B26
510 | B27
210 | B28
240 | B29
230 | B30
230 | B31
310 | B32
250 | B33
230 | B34
120 | B35
96 | B36
540 | B37
340 | B38
240 | B39
190 | B40
1500 | B41
200 | B42
